Among the data in publication PMC2796180 are FRET efficiency EF values, retold here.

This assay addresses GFP-tagged mProVII chains (in the FRET assay) (mouse). The assay is described as follows: FRET or BRET.

The substance “RFP-tagged wild type mouse mini-procollagen VII α chain (domain or fragment)” gave an FRET efficiency EF of 5.83%.
